Test results reported in patent WO2009080764A2 (dated 2009).

B1: 218-H4_20GS_218-H4 (bivalent Nb 218-H4) (VHH)
chain: EVQLVESGGALVQAGGSLRLSCVASGRTFNSIGMGWFRQAPGKERDFIGGITWDGRDTYYTDSVKGRFTISRDNAKNTVYLQMNSLKPWDTAVYYCAANRDPWIATSYQDYAYWGQGTQVTVSSGGGGSGGGGSGGGGSGGGGSEVQLVESGGALVQAGGSLRLSCVASGRTFNSIGMGWFRQAPGKERDFIGGITWDGRDTYYTDSVKGRFTISRDNAKNTVYLQMNSLKPWDTAVYYCAANRDPWIATSYQDYAYWGQGTQVTVSS
B2: Nb 218-H4 (VHH)
VHH: EVQLVESGGALVQAGGSLRLSCVASGRTFNSIGMGWFRQAPGKERDFIGGITWDGRDTYYTDSVKGRFTISRDNAKNTVYLQMNSLKPWDTAVYYCAANRDPWIATSYQDYAYWGQGTQVTVSS
notes: Anti-FcRn Nanobody, family V; detected through a myc tag; also called monovalent nanobody
B3: 4A9 (VHH)
VHH: EVQLVESGGGLVQAGGSLRLSCEASGFTLDYSGVGWFRQAPGKERELVSCISRGGDRAGYANSVKGRFTMSRDNAKNILYLQMNSLKPEDTAVYYCAATHSGSGCYDGAIDYWGKGTLVTVSS

Tests used:
[1] = target: T1, human beta2-microglobulin (human, UniProt P61769 21-119); assay: ELISA on coated b2-microglobulin from human urine, pH 5.1
T1 construct: also called b2-microglobulin; soluble human b2-microglobulin

[2] = target: shFcRn (intact soluble human FcRn, heavy chain and beta2-microglobulin) (human) (UniProt P55899); assay: ELISA pH 5.1, purified nanobody 0-50 nM on coated shFcRn, anti-myc detection
[3] = target: T2, shFcRn-GST (GST-fused soluble human FcRn, heterodimeric) (human, UniProt P55899 24-290; P61769 21-119); assay: SPR Biacore 3000, immobilized shFcRn-GST, pH 6.0, equilibrium responses in a steady-state affinity model
T2 construct: Eukaryotically expressed; immobilized by amine coupling on CM5 chips or used in ELISA; also called GST-fused shFcRn; not shown: GST fusion partner

[4] = target: T2, shFcRn-GST (GST-fused soluble human …); assay: SPR Biacore 3000, immobilized shFcRn-GST, pH 7.4, equilibrium responses in a steady-state affinity model
[5] = target: T2, shFcRn-GST (GST-fused soluble human …); assay: SPR Biacore 3000, Nb 500-15 nM over immobilized shFcRn-GST, pH 7.4, 1:1 Langmuir model
[6] = target: T2, shFcRn-GST (GST-fused soluble human …); assay: SPR Biacore 3000, Nb 500-15 nM over immobilized shFcRn-GST, pH 6.0, 1:1 Langmuir model
[7] = target: T3, human serum albumin (HSA) (human, UniProt P02768 25-609); assay: SPR Biacore T100, periplasmic extract over immobilized human serum albumin, pH 7 and pH 5
T3 construct: also called monomeric HSA

Row | binding result [1] | fold improvement in binding against the monovalent nanobody [2] | Kd [3] | Kd [4] | Kd [5] | Kd [6] | fold difference in off rate, pH 5 against pH 7 [7] | Binder
1 | no binding (tested: 0-50 nM) | 10 fold |  |  |  |  |  | B1
2 | no binding (tested: 0-50 nM) |  | 22 nM | 55.6 nM | ~52.5 nM | ~21.2 nM |  | B2
3 |  |  |  |  |  |  | 0.54 fold | B3
